Source: patent US7618621B2, “Mammalian multipotent neural stem cells and compositions, methods of preparation and methods of administration thereof” (The Board of Trustees of the University of Illinois, priority 2002, dated 2009)

B1: TGF-b3: human recombinant transforming growth factor beta 3 (R&D) (protein, UniProt P10600 301-412, looked up)
Transforming growth factor …: ALDTNYCFRNLEENCCVRPLYIDFRQDLGWKWVHEPKGYYANFCSGPCPYLRSADTTHSTVLGLYNTLNPEASASPCCVPQDLEPLTILYYVGRTPKVEQLSNMVVKSCKCS
B2: CNTF: ciliary neurotrophic factor (protein, UniProt P26441 1-200, looked up)
Ciliary neurotrophic factor: MAFTEHSPLTPHRRDLCSRSIWLARKIRSDLTALTESYVKHQGLNKNINLDSADGMPVASTDQWSELTEAERLQENLQAYRTFHVLLARLLEDQQVHFTPTEGDFHQAIHTLLLQVAAFAYQIEELMILLEYKIPRNEADGMPINVGDGGLFEKKLWGLKVLQELSQWTVRSIHDLRFISSHQTGIPARGSHYIANNKKM

Legend:
human NSCs = assay: Retinal differentiation of human NSCs in vitro (opsin immunocytochemistry); assay type: cell-based; conditions: for differentiation of NSCs into opsin-positive cells: factor for 3 days before, or for 5 days during, spontaneous differentiation in serum-free condition, 50 ng/ml; for differentiation of NSCs into retinal cells (opsin staining): FIG. 7(II), serum-free differentiation, 20 ng/ml IGF-1, 100 ng/ml TGF-b3, 10 ng/ml CNTF
Description: Two kinds of differentiation studies were performed: treatment of human NSCs with factors (i) before and (ii) during spontaneous differentiation under a basal media condition. In the first example, NSCs were differentiated under a serum-free differentiation condition in the presence of TGF-b3 (R&D, 50 ng/ml (1 ng/ml to 1 ug/ml)) and VEGF (R&D, 50 ng/ml (1 ng/ml to 1 ug/ml)) for 5 days in Lab-Teck II chamber slides (Nalge Nunc). The second example elucidated whether pretreatment of NSCs is sufficient to produce retinal lineages in these cells. The NSCs were treated with these factors for 3 days, and then differentiated for 5 days under the serum-free differentiation condition in the absence of these factors in the Lab-Teck II chamber slides. As a control, human NSCs were differentiated for 5 days in a no-factor treatment under a serum-free differentiation condition. After differentiation, cells were examined by double-immunofluorescent-cytochemistry (Kim et al., 2002, Proc. Natl. Acad. Sci. U S A 99: 4020-5) with antibodies in a combination of goat anti-GFAP (1:100, Research Diagnostics) and mouse anti-B-tubulin (1:700, Sigma) or mouse anti-opsin (1:200, Chemicon). […] No opsin-positive cells were detected in the spontaneous differentiation without TGF-b3 (FIG. 7b), the treated cells were positive for bIII-tubulin and GFAP (FIG. 7a).

MeSCs = assay: Retinal cell differentiation of MeSCs with growth factor treatment; assay type: cell-based; conditions: without BrdU pre-treatment
rat retina = assay: Transplantation of pretreated NSCs into the rat vitreous cavity (opsin immunocytochemistry, human opsin ISHH); assay type: in vivo; conditions: FIG. 8(II); 8 days after transplantation to rat eye; NSCs exposed for four days to 20 ng/ml IGF-1, 100 ng/ml TGF-b3 or 10 ng/ml CNTF

Row | Molecule | differentiation of NSCs into opsin-positive cells (human NSCs) | retinal cell-differentiation of MeSCs (MeSCs) | differentiation of NSCs into retinal cells (opsin staining) (human NSCs) | differentiation of transplanted NSCs to opsin-expressing cells in vivo (rat retina)
1 | VEGF | no opsin-positive cells were detectable | not sufficient to confer retinal cell-differentiation |  | 
2 | IGF-1: insulin-like growth factor-1 |  |  | can differentiate into retinal cells | differentiated to opsin-expressing cells in vivo
3 | B1 | differentiated into opsin-positive cells | not sufficient to confer retinal cell-differentiation | can differentiate into retinal cells | differentiated to opsin-expressing cells in vivo
4 | B2 |  |  | can differentiate into retinal cells | differentiated to opsin-expressing cells in vivo
